From ChEMBL document CHEMBL2074115, “Anthracyclines modulate multidrug resistance protein (MRP) mediated organic anion transport” (Biochim Biophys Acta, 1997)

Legend:
[1] = substrate: N[C@@H](CCC(=O)N[C@@H](CSSC[C@H](NC(=O)CC[C@H](N)C(=O)O)C(=O)NCC(=O)O)C(=O)NCC(=O)O)C(=O)O; experiment: (§1) TP_TRANSPORTER: uptake in membrane vesicles from GLC4/ADR cells; assay type: functional, cell membranes, GLC-4/ADR, Membrane vesicle
[2] = substrate: N[C@@H](CCC(=O)N[C@H](CSc1ccc([N+](=O)[O-])cc1[N+](=O)[O-])C(=O)NCC(=O)O)C(=O)O; experiment: as §1; assay type: functional, cell membranes, GLC-4/ADR, Membrane vesicle

B1: Multidrug resistance-associated protein 1 (Homo sapiens) (protein)
chain: MALRGFCSADGSDPLWDWNVTWNTSNPDFTKCFQNTVLVWVPCFYLWACFPFYFLYLSRHDRGYIQMTPLNKTKTALGFLLWIVCWADLFYSFWERSRGIFLAPVFLVSPTLLGITMLLATFLIQLERRKGVQSSGIMLTFWLVALVCALAILRSKIMTALKEDAQVDLFRDITFYVYFSLLLIQLVLSCFSDRSPLFSETIHDPNPCPESSASFLSRITFWWITGLIVRGYRQPLEGSDLWSLNKEDTSEQVVPVLVKNWKKECAKTRKQPVKVVYSSKDPAQPKESSKVDANEEVEALIVKSPQKEWNPSLFKVLYKTFGPYFLMSFFFKAIHDLMMFSGPQILKLLIKFVNDTKAPDWQGYFYTVLLFVTACLQTLVLHQYFHICFVSGMRIKTAVIGAVYRKALVITNSARKSSTVGEIVNLMSVDAQRFMDLATYINMIWSAPLQVILALYLLWLNLGPSVLAGVAVMVLMVPVNAVMAMKTKTYQVAHMKSKDNRIKLMNEILNGIKVLKLYAWELAFKDKVLAIRQEELKVLKKSAYLSAVGTFTWVCTPFLVALCTFAVYVTIDENNILDAQTAFVSLALFNILRFPLNILPMVISSIVQASVSLKRLRIFLSHEELEPDSIERRPVKDGGGTNSITVRNATFTWARSDPPTLNGITFSIPEGALVAVVGQVGCGKSSLLSALLAEMDKVEGHVAIKGSVAYVPQQAWIQNDSLRENILFGCQLEEPYYRSVIQACALLPDLEILPSGDRTEIGEKGVNLSGGQKQRVSLARAVYSNADIYLFDDPLSAVDAHVGKHIFENVIGPKGMLKNKTRILVTHSMSYLPQVDVIIVMSGGKISEMGSYQELLARDGAFAEFLRTYASTEQEQDAEENGVTGVSGPGKEAKQMENGMLVTDSAGKQLQRQLSSSSSYSGDISRHHNSTAELQKAEAKKEETWKLMEADKAQTGQVKLSVYWDYMKAIGLFISFLSIFLFMCNHVSALASNYWLSLWTDDPIVNGTQEHTKVRLSVYGALGISQGIAVFGYSMAVSIGGILASRCLHVDLLHSILRSPMSFFERTPSGNLVNRFSKELDTVDSMIPEVIKMFMGSLFNVIGACIVILLATPIAAIIIPPLGLIYFFVQRFYVASSRQLKRLESVSRSPVYSHFNETLLGVSVIRAFEEQERFIHQSDLKVDENQKAYYPSIVANRWLAVRLECVGNCIVLFAALFAVISRHSLSAGLVGLSVSYSLQVTTYLNWLVRMSSEMETNIVAVERLKEYSETEKEAPWQIQETAPPSSWPQVGRVEFRNYCLRYREDLDFVLRHINVTINGGEKVGIVGRTGAGKSSLTLGLFRINESAEGEIIIDGINIAKIGLHDLRFKITIIPQDPVLFSGSLRMNLDPFSQYSDEEVWTSLELAHLKDFVSALPDKLDHECAEGGENLSVGQRQLVCLARALLRKTKILVLDEATAAVDLETDDLIQSTIRTQFEDCTVLTIAHRLNTIMDYTRVIVLDKGEIQEYGAPSDLLQQRGLFYSMAKDAGLV
B1 showed a Km [1] of 43 µM and a Km [2] of 1.2 µM.
